In patent US20190359687A1 (Bayer, published 2019):

T1: human glycophorin A on human red blood cells (human, UniProt P02724 20-150)
T1 construct: whole, on cells; also called human GPA; huGPA
T1 sequence (looked up): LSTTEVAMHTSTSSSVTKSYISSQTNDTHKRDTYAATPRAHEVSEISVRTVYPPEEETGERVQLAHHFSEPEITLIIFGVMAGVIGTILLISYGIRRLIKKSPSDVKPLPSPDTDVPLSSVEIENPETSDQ

T2: glycophorin A peptide GP5 (human, biotin at the N-terminus)
T2 construct: Residues 42 to 61 of the human glycophorin A extracellular domain
T2 peptide: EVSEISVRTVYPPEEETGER

B1: TPP-8741 FVIII-scFv fusion protein (other)
chain: ATRRYYLGAVELSWDYMQSDLGELPVDARFPPRVPKSFPFNTSVVYKKTLFVEFTDHLFNIAKPRPPWMGLLGPTIQAEVYDTVVITLKNMASHPVSLHAVGVSYWKASEGAEYDDQTSQREKEDDKVFPGGSHTYVWQVLKENGPMASDPLCLTYSYLSHVDLVKDLNSGLIGALLVCREGSLAKEKTQTLHKFILLFAVFDEGKSWHSETKNSLMQDRDAASARAWPKMHTVNGYVNRSLPGLIGCHRKSVYWHVIGMGTTPEVHSIFLEGHTFLVRNHRQASLEISPITFLTAQTLLMDLGQFLLFCHISSHQHDGMEAYVKVDSCPEEPQLRMKNNEEAEDYDDDLTDSEMDVVRFDDDNSPSFIQIRSVAKKHPKTWVHYIAAEEEDWDYAPLVLAPDDRSYKSQYLNNGPQRIGRKYKKVRFMAYTDETFKTREAIQHESGILGPLLYGEVGDTLLIIFKNQASRPYNIYPHGITDVRPLYSRRLPKGVKHLKDFPILPGEIFKYKWTVTVEDGPTKSDPRCLTRYYSSFVNMERDLASGLIGPLLICYKESVDQRGNQIMSDKRNVILFSVFDENRSWYLTENIQRFLPNPAGVQLEDPEFQASNIMHSINGYVFDSLQLSVCLHEVAYWYILSIGAQTDFLSVFFSGYTFKHKMVYEDTLTLFPFSGETVFMSMENPGLWILGCHNSDFRNRGMTALLKVSSCDKNTGDYYEDSYEDISAYLLSKNNAIEPRSFSQNGGGGSTGGTGGSSGGGTGSGGGGTGGSGGTDIQLTQSPSFLSASVGDRVTITCRASSSVRYIYWFQQKPGKAPKLLIYATSFRQSGVPSRFSGSGSGTEYTLTISSLQPEDFATYYCHQRNSFPYTFGQGTKLEIKGGGGSGGGGSGGGGSGGGGSEVQLVQSGAEVKKPGASVKVSCKASGYTFTTYAIHWVRQAPGQGLEWMGYINPSSGYTRYNPKFKGRVTMTRDKSTSTAYMELRSLRSDDTAVYYCWTGTRDYWGQGTTVTVSSGGGGSQNPPVLKRHQREITRTTLQSDQEEIDYDDTISVEMKKEDFDIYDEDENQSPRSFQKKTRHYFIAAVERLWDYGMSSSPHVLRNRAQSGSVPQFKKVVFQEFTDGSFTQPLYRGELNEHLGLLGPYIRAEVEDNIMVTFRNQASRPYSFYSSLISYEEDQRQGAEPRKNFVKPNETKTYFWKVQHHMAPTKDEFDCKAWAYFSDVDLEKDVHSGLIGPLLVCHTNTLNPAHGRQVTVQEFALFFTIFDETKSWYFTENMERNCRAPCNIQMEDPTFKENYRFHAINGYIMDTLPGLVMAQDQRIRWYLLSMGSNENIHSIHFSGHVFTVRKKEEYKMALYNLYPGVFETVEMLPSKAGIWRVECLIGEHLHAGMSTLFLVYSNKCQTPLGMASGHIRDFQITASGQYGQWAPKLARLHYSGSINAWSTKEPFSWIKVDLLAPMIIHGIKTQGARQKFSSLYISQFIIMYSLDGKKWQTYRGNSTGTLMVFFGNVDSSGIKHNIFNPPIIARYIRLHPTHYSIRSTLRMELMGCDLNSCSMPLGMESKAISDAQITASSYFTNMFATWSPSKARLHLQGRSNAWRPQVNNPKEWLQVDFQKTMKVTGVTTQGVKSLLTSMYVKEFLISSSQDGHQWTLFFQNGKVKVFQGNQDSFTPVVNSLDPPLLTRYLRIHPQSWVHQIALRMEVLGCEAQDLY
notes: The entry is the mature protein; mostly a 2 chain molecule; also called BDD-Bdom scFv; PPB 6559
B2: TPP-9901 FVIII-scFv fusion protein (other)
chain: ATRRYYLGAVELSWDYMQSDLGELPVDARFPPRVPKSFPFNTSVVYKKTLFVEFTDHLFNIAKPRPPWMGLLGPTIQAEVYDTVVITLKNMASHPVSLHAVGVSYWKASEGAEYDDQTSQREKEDDKVFPGGSHTYVWQVLKENGPMASDPLCLTYSYLSHVDLVKDLNSGLIGALLVCREGSLAKEKTQTLHKFILLFAVFDEGKSWHSETKNSLMQDRDAASARAWPKMHTVNGYVNRSLPGLIGCHRKSVYWHVIGMGTTPEVHSIFLEGHTFLVRNHRQASLEISPITFLTAQTLLMDLGQFLLFCHISSHQHDGMEAYVKVDSCPEEPQLRMKNNEEAEDYDDDLTDSEMDVVRFDDDNSPSFIQIRSVAKKHPKTWVHYIAAEEEDWDYAPLVLAPDDRSYKSQYLNNGPQRIGRKYKKVRFMAYTDETFKTREAIQHESGILGPLLYGEVGDTLLIIFKNQASRPYNIYPHGITDVRPLYSRRLPKGVKHLKDFPILPGEIFKYKWTVTVEDGPTKSDPRCLTRYYSSFVNMERDLASGLIGPLLICYKESVDQRGNQIMSDKRNVILFSVFDENRSWYLTENIQRFLPNPAGVQLEDPEFQASNIMHSINGYVFDSLQLSVCLHEVAYWYILSIGAQTDFLSVFFSGYTFKHKMVYEDTLTLFPFSGETVFMSMENPGLWILGCHNSDFRNRGMTALLKVSSCDKNTGDYYEDSYEDISAYLLSKNNAIEPRSFSQNGGGGSTGGTGGSSGGGTGSGGGGTGGSGGTDIQLTQSPSFLSASVGDRVTITCRASSSVRYIYWFQQKPGKAPKLLIYATSFRQSGVPSRFSGSGSGTEYTLTISSLQPEDFATYYCHQRNSFPYTFGQGTKLEIKGGGGSGGGGSGGGGSGGGGSEVQLVQSGAEVKKPGASVKVSCKASGYTFTTYAIHWVRQAPGQGLEWMGYINPSSGYTRYNPKFKGRVTMTRDKSTSTAYMELRSLRSDDTAVYYCWTGTRDYWGQGTTVTVSSGGGGDENQSPRSFQKKTRHYFIAAVERLWDYGMSSSPHVLRNRAQSGSVPQFKKVVFQEFTDGSFTQPLYRGELNEHLGLLGPYIRAEVEDNIMVTFRNQASRPYSFYSSLISYEEDQRQGAEPRKNFVKPNETKTYFWKVQHHMAPTKDEFDCKAWAYFSDVDLEKDVHSGLIGPLLVCHTNTLNPAHGRQVTVQEFALFFTIFDETKSWYFTENMERNCRAPCNIQMEDPTFKENYRFHAINGYIMDTLPGLVMAQDQRIRWYLLSMGSNENIHSIHFSGHVFTVRKKEEYKMALYNLYPGVFETVEMLPSKAGIWRVECLIGEHLHAGMSTLFLVYSNKCQTPLGMASGHIRDFQITASGQYGQWAPKLARLHYSGSINAWSTKEPFSWIKVDLLAPMIIHGIKTQGARQKFSSLYISQFIIMYSLDGKKWQTYRGNSTGTLMVFFGNVDSSGIKHNIFNPPIIARYIRLHPTHYSIRSTLRMELMGCDLNSCSMPLGMESKAISDAQITASSYFTNMFATWSPSKARLHLQGRSNAWRPQVNNPKEWLQVDFQKTMKVTGVTTQGVKSLLTSMYVKEFLISSSQDGHQWTLFFQNGKVKVFQGNQDSFTPVVNSLDPPLLTRYLRIHPQSWVHQIALRMEVLGCEAQDLYGGGSGGGGSGLVPRGSGGGSGGGGSGDIQLTQSPSFLSASVGDRVTITCRASSSVRYIYWFQQKPGKAPKLLIYATSFRQSGVPSRFSGSGSGTEYTLTISSLQPEDFATYYCHQRNSFPYTFGQGTKLEIKGGGGSGGGGSGGGGSGGGGSEVQLVQSGAEVKKPGASVKVSCKASGYTFTTYAIHWVRQAPGQGLEWMGYINPSSGYTRYNPKFKGRVTMTRDKSTSTAYMELRSLRSDDTAVYYCWTGTRDYWGQGTTVTVSS
notes: also called PPB 7855

Tests used:
[1] = target: T1, human glycophorin A on human red blood …; test: partition to human RBC, vWF deficient plasma, 5 min
[2] = target: T1, human glycophorin A on human red blood …; test: partition to human RBC, human HemA plasma, 5 min
Protocol: (§1) The supernatant containing plasma, platelets and white blood cells was discarded and the red blood cell pellet was resuspended in 10 pellet volumes of PBS (50 mM Phosphate buffer, pH7.4, 150 mM NaCl). The red blood cells were then pelleted by slow speed centrifugation and the red blood cells re-suspended in 10 volumes of PBS. This washing step was repeated 4 more times and the red blood cells finally resuspended in a volume of plasma from Hemophilia patients with less than 1% of normal levels of FVIII (GeorgeKing Bio-Medical, Overland Park, Kans.) to generate a total volume equal to the initial blood volume such that the RBC density was equal to that of normal whole blood. BDD and RBC targeted FVIII molecules were then spiked into RBC suspension in HemA plasma at 1 IU/mL, and incubated at room temperature for 2-3 hours with gentle rotation. […] An additional control was performed in which BDD or RBC targeted FVIII molecules were added at 11U/ml into the same human hemophilia A plasma and incubated for 5 minutes and 180 mins. These samples were used to determine the input FVIII activity in the presence of plasma which was used to calculate the percentage of the molecule that was bound to RBC. All plasma samples were then assayed together for FVIII activity using the Coatest SP assay (DiaPharma, Columbus, Ohio). The assay was performed following the manufacturer's instructions in a 96-well plate format. […] The plate was incubated at 37° C. for 10 minutes with shaking between each reagent addition. […] The amount of FVIII activity in the plasma reflects the amount of unbound FVIII. The FVIII activity of the same molecule spiked in to Hemophilia A plasma alone (no RBC) and incubated for 5 minutes was normalized to 100%.

[3] = target: T1, human glycophorin A on human red blood …; test: partition to human RBC, human HemA plasma, 120 min
[4] = target: T1, human glycophorin A on human red blood …; test: partition to human RBC, vWF deficient plasma, 60 min
[5] = target: T3, Cynomolgus monkey glycophorin A on Cynomolgus monkey red blood cells (Cynomolgus monkey); test: partition to Cyno RBC, human HemA plasma, 5 min;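 further: FVIII fusion spiked at 1 IU/mL into RBC suspension at whole-blood density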
T3 construct: whole, on cells; also called Cyno GPA; Cyno RBC

[6] = target: T1, human glycophorin A on human red blood …; test: partition to human RBC, human HemA plasma, 60 min
Protocol: as §1

[7] = target: T3, Cynomolgus monkey glycophorin A on …; test: partition to Cyno RBC, human HemA plasma, 120 min;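 further: FVIII fusion spiked at 1 IU/mL into RBC suspension at whole-blood density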
Protocol: (§2) To evaluate partition to cynomolgus monkey or human red blood cells, whole blood was draw from Cynomolgus monkey or normal human volunteers in to anticoagulant with 4% sodium citrate (Sigma, St Louis, Mo.). The red blood cells were purified by layering the whole blood on to ficoll followed by low speed centrifugation. The supernatant containing plasma, platelets and white blood cells was discarded and the red blood cell pellet was resuspended in 10 pellet volumes of PBS (50 mM Phosphate buffer, pH7.4, 150 mM NaCl). The red blood cells were then pelleted by slow speed centrifugation and the red blood cells re-suspended in 10 volumes of PBS. This washing step was repeated 4 more times and the red blood cells finally resuspended in a volume of plasma from Hemophilia patients with less than 1% of normal levels of FVIII (GeorgeKing Bio-Medical, Overland Park, Kans.) to generate a total volume equal to the initial blood volume such that the RBC density was equal to that of normal whole blood. BDD and RBC targeted FVIII molecules were then spiked into RBC suspension in HemA plasma at 1 IU/mL, and incubated at room temperature for 2-3 hours with gentle rotation. […] An additional control was performed in which BDD or RBC targeted FVIII molecules were added at 11U/ml into the same human hemophilia A plasma and incubated for 5 minutes and 180 mins. These samples were used to determine the input FVIII activity in the presence of plasma which was used to calculate the percentage of the molecule that was bound to RBC. All plasma samples were then assayed together for FVIII activity using the Coatest SP assay (DiaPharma, Columbus, Ohio). The assay was performed following the manufacturer's instructions in a 96-well plate format. […] The plate was incubated at 37° C. for 10 minutes with shaking between each reagent addition.

[8] = target: T3, Cynomolgus monkey glycophorin A on …; test: partition to Cyno RBC, human HemA plasma, 60 min;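 further: FVIII fusion spiked at 1 IU/mL into RBC suspension at whole-blood density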
Protocol: as §2

[9] = target: T1, human glycophorin A on human red blood …; test: partition to human RBC, human HemA plasma, 120 min; remark: listed apart in the source
Protocol: as §1

[10] = target: T1, human glycophorin A on human red blood …; test: partition to human RBC, vWF deficient plasma, 120 min
[11] = target: T1, human glycophorin A on human red blood …; test: partition to human RBC, human HemA plasma, 30 min
Protocol: as §1

[12] = target: T1, human glycophorin A on human red blood …; test: partition to human RBC, vWF deficient plasma, 15 min
[13] = target: T3, Cynomolgus monkey glycophorin A on …; test: partition to Cyno RBC, human HemA plasma, 30 min;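 further: FVIII fusion spiked at 1 IU/mL into RBC suspension at whole-blood density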
Protocol: as §2

[14] = target: T3, Cynomolgus monkey glycophorin A on …; test: partition to Cyno RBC, human HemA plasma, 15 min;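 further: FVIII fusion spiked at 1 IU/mL into RBC suspension at whole-blood density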
[15] = target: T1, human glycophorin A on human red blood …; test: partition to human RBC, vWF deficient plasma, 30 min
[16] = target: T2, glycophorin A peptide GP5; test: Octet, GP5 peptide on the probe, fusion protein in solution, 1:1 fit
[17] = target: T1, human glycophorin A on human red blood …; test: partition to human RBC, human HemA plasma, 1 min
Protocol: as §1

[18] = target: T1, human glycophorin A on human red blood …; test: partition to human RBC, human HemA plasma, 15 min
Protocol: as §1

[19] = target: T1, human glycophorin A on human red blood …; test: partition to human RBC, vWF deficient plasma, 1 min
[20] = target: T3, Cynomolgus monkey glycophorin A on …; test: partition to Cyno RBC, human HemA plasma, 1 min;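 further: FVIII fusion spiked at 1 IU/mL into RBC suspension at whole-blood density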
Protocol: as §2

Binder	percentage bound to human RBC [1]	percentage bound to human RBC [2]	percentage bound to human RBC [3]	percentage bound to human RBC [4]	% bound to Cyno RBC [5]	percentage bound to human RBC [6]	% bound to Cyno RBC [7]	% bound to Cyno RBC [8]	percentage bound to human RBC [9]	percentage bound to human RBC [10]	percentage bound to human RBC [11]	percentage bound to human RBC [12]	% bound to Cyno RBC [13]	% bound to Cyno RBC [14]	percentage bound to human RBC [15]	percentage bound to human RBC [17]	percentage bound to human RBC [18]	percentage bound to human RBC [19]	% bound to Cyno RBC [20]	other results
B1	67.9%	13.8%	52.8%	93.3%	-19.3%	37.1%	-1.9%	-9.8%	52.8%	93%	20.5%	88.3%	-1.9%	-12.5%	92.4%	0%	16.3%	35.1%	0%	Kd [16]: 13.3 nM; koff [16]: 0.00465 s⁻¹; kon [16]: 351000 M⁻¹ s⁻¹
B2	44.9%	53.8%	86.7%	64.3%	46%	84.1%	71%	68%	86.7%	72.7%	78.9%	53.8%	58%	54%	57.3%	31.4%	71.5%	26%	26.4%	–
